These results are taken from patent US20170165342A1 (VIRGINIA COMMONWEALTH UNIVERSITY, published 2017).

Assay [1] has as its target sLe^x-capped P-selectin glycoprotein ligand-1 (PSGL-1) (UniProt Q14242). The experiment in a line: cell-based or functional assay.
The target of assay [2] is T1, sLe^x-capped P-selectin glycoprotein ligand-1 (PSGL-1) (UniProt Q14242 42-412, capped with the sialyl Lewis x (sLe^x) O-glycan).
T1 sequence: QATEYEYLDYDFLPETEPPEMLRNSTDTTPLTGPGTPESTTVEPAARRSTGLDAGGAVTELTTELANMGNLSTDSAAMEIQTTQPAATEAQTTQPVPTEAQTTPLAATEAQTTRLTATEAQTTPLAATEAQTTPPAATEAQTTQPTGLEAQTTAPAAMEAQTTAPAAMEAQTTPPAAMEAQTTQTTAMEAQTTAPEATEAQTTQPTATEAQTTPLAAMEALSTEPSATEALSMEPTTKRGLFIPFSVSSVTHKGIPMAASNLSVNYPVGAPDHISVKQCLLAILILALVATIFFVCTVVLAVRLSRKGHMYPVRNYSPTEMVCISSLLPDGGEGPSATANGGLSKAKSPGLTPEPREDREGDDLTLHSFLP
The experiment in a line: cell-based or functional assay.

Where “and” joins values, the source holds several entries; their conditions need not be identical. Equal values may be shown once.

Consider “KPL-1, PSGL-1 N-terminus-specific antibody”, for which the numbers of bound DC organisms per PSGL-1 CHO cell after incubating PSGL-1 CHO cells with KPL-1 (fold reduction) in assay [1] was 2 and 3.

B1: OmpA (outer membrane protein A) on the surface of A. phagocytophilum DC organisms (other)
chain: CGTLLPDSNVGVGRHDLGSHRSVAFAKKVEKVYFDIGKYDLKGPGKKVILELVEQLRQDDSMYLVVIGHADATGTEEYSLALGEKRANAVKQFIIGCDKSLAPRVTTQSRGKAEPEVLVYSTDAQEVEKANAQNRRAVIVVEFAHIPRSGVADMHAPVASSITSENSNASAEGEDMEASEFSSAIAN
For B1, the “bacterial binding to PSGL-1 CHO cells after pretreating bacteria with anti-OmpA” value in assay [2] is approximately 2 fold reduction.
